Patent US9605038B2, “Fusion peptide comprising dhFas-1 domain and MMP substrate and use thereof for preventing and treating rheumatoid arthritis” (Kyungpook National University Industry-Academic Cooperation …, priority 2010, dated 2017)

Legend:
MMP1 = target: T1, MMP1 (Homo sapiens, UniProt P03956); test: Enzymatic digestion test, MMP1; type: biochemical; conditions: 3 ug peptide, MMP1 5, 10, 50 ng, 37° C. 4 hours
T1 sequence (P03956 100-469): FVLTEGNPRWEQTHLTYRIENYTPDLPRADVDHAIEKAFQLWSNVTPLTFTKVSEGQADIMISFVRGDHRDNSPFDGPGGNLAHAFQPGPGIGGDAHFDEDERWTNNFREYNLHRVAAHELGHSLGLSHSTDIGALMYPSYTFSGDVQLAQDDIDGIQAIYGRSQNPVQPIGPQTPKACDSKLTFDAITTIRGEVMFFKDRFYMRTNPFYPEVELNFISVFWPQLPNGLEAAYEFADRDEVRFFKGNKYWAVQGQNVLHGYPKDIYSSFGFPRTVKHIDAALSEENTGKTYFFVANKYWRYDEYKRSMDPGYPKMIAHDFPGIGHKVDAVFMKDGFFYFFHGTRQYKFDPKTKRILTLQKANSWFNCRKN
Procedure: 3 ug of synthesized mdhFas-1-MMPsubstrate structure modified protein, together with MMP1 (5 ng, 10 ng and 50 ng), MMP2 (100 ng, 200 ng and 800 ng), MMP3 (10 ng, 50 ng and 100 ng), cathepsin D (5 ng, 10 ng and 50 ng), cathepsin L (100 ng, 200 ng and 800 ng), and cathepsin K (10 ng, 50 ng and 100 ng), was mixed with enzyme buffer (150 mM NaCl, 5 mM. CaCl2, 20 mM Tris-HCl pH7.5), and reacted at 37° C. for 4 hours. The resultant product was subjected to electrophoresis through 15% polyacrylamide gel, transferred to a Nitrocellulose Membrane (Schleicher & Schuell), blocked at room temperature for 1 hour with TBST solution containing 3% BSA (20 mmole/L Tris-HCl, 137 mmole//l NaCl, 0.1% Tween-20), washed TBST solution three times (each for 10 minutes), and reacted with primary antibody (anti-Histidine or anti-Bigh3) for 1 hour. The resultant product was washed with TBST solution three times (each for 10 minutes), reacted with a secondary antibody conjugated to horseradish peroxidase (HRP) for 1 hour, washed TBST solution three times (each for 10 minutes), and visualized by ECL (Amersham Biosciences, UK) so as to detect the change in the amount of mdhFas-1-MMPsubstrate-RGD structural peptide.

[1] = target: T2, MMP-1 secreted from a human Synovial membrane cell (Homo sapiens, UniProt P03956); test: Culture analysis of enzymatic digestion in IL-1β stimulated human FLS; type: cell-based; conditions: 1 uM peptide, 3 and 6 hours, IL-1β 0.1 ng/ml
T2 construct: MFK24 peptide cleaved by MMP-1 secreted from a human Synovial membrane cell; endogenous in cells; host or cells: human fibroblast-like synoviocytes (human synovial membrane cell line) stimulated with 0.1 ng/ml IL-1β
T2 sequence (P03956 100-469): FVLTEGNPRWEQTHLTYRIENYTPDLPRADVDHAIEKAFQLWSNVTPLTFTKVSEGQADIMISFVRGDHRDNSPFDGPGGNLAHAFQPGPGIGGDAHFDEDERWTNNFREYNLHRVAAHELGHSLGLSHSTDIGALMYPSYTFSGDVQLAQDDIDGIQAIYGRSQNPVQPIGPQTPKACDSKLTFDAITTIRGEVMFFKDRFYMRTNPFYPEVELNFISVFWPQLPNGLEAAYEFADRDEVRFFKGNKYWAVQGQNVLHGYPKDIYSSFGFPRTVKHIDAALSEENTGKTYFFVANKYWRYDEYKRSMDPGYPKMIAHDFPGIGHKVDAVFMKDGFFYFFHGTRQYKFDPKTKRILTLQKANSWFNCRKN
Procedure: In order to determine if MFK24 is well adhered to cells and in actuality cleaved by MMP-1, human FLS (fibroblast-like synovicyte) was treated with IL-1β so as to amplify the expression of MMP-1. Then, MFK24 was added in a culture medium and cultured.
In a culture medium of DMEM+10% FBS (fetal bovine serum)+2% penicillin, streptomycin, a human Synovial membrane cell line was cultured for 2 days, added with 0.1 ng/ml IL-1β, and stimulated for 24 hours. The cell line was treated with mdhFas-1-MMPsubstrate-RGD structural peptide (1 uM), and stimulated for 3 hours and 6 hours. Then, by using an anti-βig-h3 antibody recognizing mdhfas-1, and an anti-histidine antibody recognizing C-terminal histidine-tag, the amount of peptide was determined.

ICAM-1 and RANKL = test: Immunoblot of ICAM-1 and RANKL in CIA mouse model; type: in vivo
[2] = system: TNF-a, RANKL, IL-1β, CCL-2, MMP-1, MMP-3, IL-6, VCAM-1; test: Semiquantitative reverse transcription PCR of inflammatory mediators in CIA mouse foot tissue; type: in vivo; conditions: CIA mouse articulation tissue, FIG. 21
Procedure: The distribution of inflammation in the foot tissue may be somewhat differently observed according to the regions, and its quantitative research is difficult. Thus, in the hind leg of a mouse CIA model treated with MFK24, the change in inflammatory mediators according to the onset of arthritis was measured by a semiquantitative reverse transcription PCR method using a Taqman probe, as described below.
From a mouse CIA model, a foot tissue was separated, and its skin was removed. The remaining tissue was grinded by a tissue homogenizer, and an extraction reagent (Easy-spim™, Intron) was used to extract all RNAs. They were quantified, and for 7 μg of RNA, a reverse transcriptase reaction was carried out by using AMV reverse transcriptase (Roche, 0.5 ul), oligo dT (Roche, 1 ul), and 10 mM dNTP (Takara, 2 ul) RNase inhibitor (Roche, 0.1 ul). For TNF-a, RANKL, IL-1β, CCL-2, MMP-1, MMP-3, IL-6, VCAM-1 and 18S RNA of a mouse, semiquantitative PCR was performed by using primers (Bioneer, Daejeon) and a Taqman probe (Roche, Germany) in LC480 (Roche, Germany), so as to determine the number of transcripts. Quantitative analysis of the transcripts was performed through comparison with 18S RNA transcripts. The primer pairs for the semiquantitative PCR are noted in [table8].

B1: MFK23: fusion peptide having sequential links of mdhFas-1, MMP2 substrate GPLGVRG (SEQ ID NO: 5), and QERGDSLA (SEQ ID NO: 10) (protein)
chain: QAMPPEELNKLLANAKELTNILKYHIGDEILVSGGIGALVRLKSLQGDKLEVSSKNNVVSVNKEPVAETDIMEFGPLGVRGVDGQERGDSLAGLE
modifications: MFK23
cleavage through treatment with MMP-1 (MMP1): not cleaved

B2: MFK24: fusion peptide having sequential links of mdhFas-1, MMP1 substrate GPQGIAG (SEQ ID NO: 6), and QERGDSLA (SEQ ID NO: 10) (protein)
chain: QAMPPEELNKLLANAKELTNILKYHIGDEILVSGGIGALVRLKSLQGDKLEVSSKNNVVSVNKEPVAETDIMEFGPQGIAGVDGQERGDSLAGLE
modifications: MFK24
cleavage in FLS culture (anti-histidine vs anti-βig-h3) [1]: cleaved by MMP-1 secreted from a Synovial membrane cell | efficacy on ICAM-1 and RANKL expression at low dose (ICAM-1 and RANKL; 0.1 mg/kg): the high efficacy was maintained | expression of ICAM-1 and RANKL in the inflammatory region (ICAM-1 and RANKL; according to doses, FIG. 22): reduced | number of transcripts of inflammatory mediators compared to arthritis control group [2]: significantly reduced | cleavage through treatment with MMP-1 (MMP1): concentration-dependently cleaved
